These are literature values, as cited in PMC2669593.

By Kd is commonly meant the free concentration of one partner at which half of the binding sites on the other are occupied at equilibrium, for simple one-to-one binding.

This data set has as its target CaVβ1b (UniProt Q02641).
Sequence of UniProt Q02641 (Q02641 whole entry): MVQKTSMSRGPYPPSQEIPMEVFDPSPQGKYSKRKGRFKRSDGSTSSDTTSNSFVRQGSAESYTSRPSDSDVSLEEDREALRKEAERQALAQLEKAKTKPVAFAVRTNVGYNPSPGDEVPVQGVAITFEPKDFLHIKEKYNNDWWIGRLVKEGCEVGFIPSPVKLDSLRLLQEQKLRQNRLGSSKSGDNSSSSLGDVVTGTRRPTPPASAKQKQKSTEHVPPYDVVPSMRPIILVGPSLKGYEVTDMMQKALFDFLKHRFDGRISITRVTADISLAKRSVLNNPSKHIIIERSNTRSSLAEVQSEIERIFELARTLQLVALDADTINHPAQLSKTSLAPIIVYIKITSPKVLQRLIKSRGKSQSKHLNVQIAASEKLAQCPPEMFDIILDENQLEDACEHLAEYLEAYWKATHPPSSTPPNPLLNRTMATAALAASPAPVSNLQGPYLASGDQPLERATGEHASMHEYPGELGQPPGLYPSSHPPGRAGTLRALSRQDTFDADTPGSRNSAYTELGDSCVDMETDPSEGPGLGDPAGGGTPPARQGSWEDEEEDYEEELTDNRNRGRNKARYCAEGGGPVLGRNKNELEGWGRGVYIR

Take “CaV2.2 I-II linker (from UniProt Q00975)”: the equilibrium dissociation constant (Kd) was 10 nM.
